Experimental data published in patent US20240207382A1 (HEALTH RESEARCH, published 2024).

Target: T1, mouse Factor H (FH from mouse, MyBiosource) (mouse, UniProt P06909 19-1234)
T1 construct: Bought protein, coated on microtiter wells; also called mouse FH
Assay: quantitative ELISA, mouse FH coated, GST-tagged protein (0.03125-2 µM) detected with anti-GST

T1 sequence (P06909 19-1234): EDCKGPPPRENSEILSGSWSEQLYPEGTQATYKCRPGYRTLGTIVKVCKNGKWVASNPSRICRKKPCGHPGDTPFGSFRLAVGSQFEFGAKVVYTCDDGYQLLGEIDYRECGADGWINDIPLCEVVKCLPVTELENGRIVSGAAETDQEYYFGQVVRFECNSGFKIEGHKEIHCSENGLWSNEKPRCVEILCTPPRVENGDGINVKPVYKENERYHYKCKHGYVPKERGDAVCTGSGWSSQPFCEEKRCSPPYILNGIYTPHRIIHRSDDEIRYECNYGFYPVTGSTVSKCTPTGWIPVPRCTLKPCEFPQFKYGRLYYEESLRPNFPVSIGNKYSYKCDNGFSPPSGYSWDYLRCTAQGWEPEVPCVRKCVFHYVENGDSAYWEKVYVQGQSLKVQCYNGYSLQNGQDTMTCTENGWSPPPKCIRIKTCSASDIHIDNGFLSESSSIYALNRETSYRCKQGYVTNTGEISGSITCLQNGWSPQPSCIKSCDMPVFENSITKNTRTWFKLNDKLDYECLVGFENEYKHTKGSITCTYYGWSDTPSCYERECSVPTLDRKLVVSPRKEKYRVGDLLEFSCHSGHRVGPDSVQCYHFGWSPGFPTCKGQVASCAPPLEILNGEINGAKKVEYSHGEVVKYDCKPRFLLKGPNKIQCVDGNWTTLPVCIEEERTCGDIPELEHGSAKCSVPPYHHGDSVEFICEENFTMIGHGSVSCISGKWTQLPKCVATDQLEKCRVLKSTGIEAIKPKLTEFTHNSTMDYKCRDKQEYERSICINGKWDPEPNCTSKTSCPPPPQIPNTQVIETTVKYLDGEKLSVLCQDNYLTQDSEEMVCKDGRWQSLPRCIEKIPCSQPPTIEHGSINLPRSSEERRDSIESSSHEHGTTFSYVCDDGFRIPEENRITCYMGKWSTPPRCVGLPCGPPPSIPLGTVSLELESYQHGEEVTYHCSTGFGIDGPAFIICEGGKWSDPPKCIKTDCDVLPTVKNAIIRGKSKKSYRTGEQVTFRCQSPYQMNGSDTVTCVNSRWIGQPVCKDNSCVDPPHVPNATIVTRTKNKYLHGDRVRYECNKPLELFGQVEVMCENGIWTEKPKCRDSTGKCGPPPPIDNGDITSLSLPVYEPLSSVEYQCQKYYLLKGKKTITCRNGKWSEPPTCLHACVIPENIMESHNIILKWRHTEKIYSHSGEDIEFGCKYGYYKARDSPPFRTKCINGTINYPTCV

B1: GST tagged CspZ (residue 20 to 236 of CspZ from B. burgdorferi strain B31) (other)
chain: DVSRLNQRNINELKIFVEKAKYYSIKLDAIYNECTGAYNDIMTYSEGTFSDQSKVNQAISIFKKDNKIVNKFKELEKIIEEYKPMFLSKLIDDFAIELDQAVDNDVSNARHVADSYKKLRKSVVLAYIESFDVISSKFVDSKFVEASKKFVNKAKEFVEENDLIALECIVKTIGDMVNDREINSRSRYNNFYKKEADFLGAAVELEGAYKAIKQTLL
notes: also called wild type CspZ; CRASP-2; not shown: glutathione-S-transferase (GST) tag encoded by plasmid pGEX-6P1
- binding result: binds
